Assay results taken from US20200079847A1 (H LUNDBECK A S, published 2020).
Like-named read-outs stand apart in the source and are kept apart here. Values belong to the binder of their own block, whether it stands above or below them.

Columns and labels:
[1] = biological target: T1, Vasoactive Intestinal Peptide (VIP) (human); experiment: competitive HTRF: unlabelled VIP (10x) against biotinylated PACAP38 (35 nM) for the titrated antibody
T1 construct: also called human VIP
T1 peptide: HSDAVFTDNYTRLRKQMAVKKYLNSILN
Protocol: In parallel, 10 μl of an antibody dilution series (highest final concentration of 100 nM) were incubated with 10 μl of N-terminal or C-terminal biotinylated PACAP38 (35 nM final) alone, or in combination with either PACAP27 (350 nM final) or VIP (350 nM final), i.e., 10× PACAP27 or 10×VIP, respectively, in a HTRF plate. 20 μl of Eu³⁺ cryptate labeled anti-hu Fc donor and 20 μl of d2-labeled streptavidin acceptor were added to each well and incubated for 1 hour at room temperature. Fluorescence was measured at 620 and 665 nm with a delay of […].

[2] = biological target: T2, Pituitary Adenylate Cyclase-Activating Polypeptide 38 (PACAP38) (Homo sapiens, C-terminal lysine is amidated); experiment: DELFIA TRF cell-surface binding: antibody pre-incubated with PACAP38, complex added to PAC1-R-expressing PC-12 cells, Eu anti-human IgG detection; PACAP38 held on the cell surface is the target
T2 construct: unlabeled peptide in SPR; also called human PACAP; huPACAP (1-38)
T2 peptide: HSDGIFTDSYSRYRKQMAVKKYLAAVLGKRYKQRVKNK

[3] = biological target: T3, Pituitary Adenylate Cyclase-Activating Polypeptide 27 (PACAP27) (Homo sapiens, C-terminal leucine is amidated); experiment: SPR, antibody immobilized
T3 peptide: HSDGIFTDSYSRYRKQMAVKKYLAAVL
Protocol: (§1) Binding affinities of monoclonal antibodies for human PACAP were estimated using SPR on the PROTEON™ XPR36 (Bio-Rad, Hercules, Calif.). Antibody was immobilized to the surface of general amine coupling (“GLC” or “GLM”) Chips (Bio-Rad, Hercules, Calif.). […] Antigen (ranging from 1.23 nM to 100 nM) was typically run sequentially with association times of 2-4 minutes and dissociation times of 3-120 minutes grouped with the PROTEON™ Manager Software (v3.1.0.6 (Bio-Rad, Hercules, Calif.)) and fitted using a 1:1 Langmuir binding model.

[4] = biological target: T2, Pituitary Adenylate Cyclase-Activating …; experiment: DELFIA TRF cell-surface binding: antibody pre-incubated with PACAP38, complex added to PAC1-R-expressing PC-12 cells, Eu anti-human IgG detection; PACAP38 held on the cell surface is the target
[5] = biological target: T2, Pituitary Adenylate Cyclase-Activating …; experiment: as above
[6] = biological target: T2, Pituitary Adenylate Cyclase-Activating …; experiment: SPR, antibody immobilized
Protocol: as §1

[7] = biological target: T2, Pituitary Adenylate Cyclase-Activating …; experiment: cell-based or functional assay
[8] = biological target: T3, Pituitary Adenylate Cyclase-Activating …; experiment: cell-based or functional assay
[9] = biological target: T2, Pituitary Adenylate Cyclase-Activating …; experiment: cell-based or functional assay
[10] = biological target: T2, Pituitary Adenylate Cyclase-Activating …; experiment: cell-based or functional assay
[11] = biological target: T2, Pituitary Adenylate Cyclase-Activating …; experiment: DELFIA TRF cell-surface binding: antibody pre-incubated with PACAP38, complex added to PAC1-R-expressing PC-12 cells, Eu anti-human IgG detection; PACAP38 held on the cell surface is the target

binding result [1]: no binding
B1: Ab3 (antibody, human IgG1, kappa, N297A, V domains shown)
VH: QEQLVESGGGLVQPEGSLTLTCTASGFSFSSSDYMCWVRQAPGKGLEWIGCIDAGSSGDTYFASWAKGRFTISKTSSTTVTLQMTSLTAADTATYFCARHLYGSITFAFGLWGQGTLVTVSS
VL: AAVLTQTPSPVSAAVGGTVTINCQASQSIGSDLAWYQQKPGQPPKLLIYDASTLASGVPSRFSGSGSGTQFTLTISGVQCDDAATYYCQGTYYSSGWYTAFGGGTEVVVKR
notes: full-length antibody, rabbit variable regions on human constant regions

EC50 (read off the curve) [2]: ~3 nM
B2: Ab5.H (antibody, V domains shown)
VH: EVQLVESGGGLVQPGGSLRLSCAASGFSLSSYAMIWVRQAPGKGLEWVGIIYDNGDTYYASSAKGRFTISRDNSKNTVYLQMNSLRAEDTAVYFCAREPGSTTQNDLWGQGTLVTVSS
VL: DVQMTQSPSTLSASVGDRVTITCQASENIYNSLLWYQQKPGKAPKLLIYRASTLASGVPSRFSGSGSGTEFTLTISSLQPDDFATYYCQNYYNIWTNGAAFGGGTKVEIKR

Kd [3]: 0.031 nM | koff [3]: 1e-05 s⁻¹ | EC50 (read off the curve) [4]: ~4 nM
B3: Ab4.H (antibody, V domains shown)
VH: EVQLVESGGGLVQPGGSLRLSCAASGFSLSSYDMSWVRQAPGKGLEWIGIINTNDDTWYASWVKGRFTISRDNSKNTLYLQMNSLRAEDTAVYYCARISDAYVFDYAYYFTLWGQGTLVTVSS
VL: DIQMTQSPSTLSASVGDRVTITCLASQNIYNSLAWYQQKPGKAPKLLIYRASTLASGVPSRFSGSGSGTEFTLTISSLQPDDFATYYCQQGAGADNIGNPFGGGTKVEIKR

binding result [1]: no binding
B4: Ab9 (antibody, human IgG1, kappa, N297A, V domains shown)
VH: EQSGGGAEGGLVKPGGSLKLSCKASGFTISRDYWICWVRQAPGKGLEWIGCISAGGGSTDYANWVNGRFTLSRDIDQSTGCLQLNSLTDADTAMYYCAGNLEIWGQGTLVTVSS
VL: AQVLTQTPSSVSAAVGGTVTINCQSSPSIYSGAFLSWFQQKPGQPPKFLIYEASKLASGVPSRFSGSGSGTQFTLTISDVQCDDAATYYCLGFYDCSSVDCHAFGGGTEVVVKR
notes: as for B1

Kd [3]: ≤ 0.01 nM
B5: Ab1 (antibody, human IgG1, kappa, N297A, V domains shown)
VH: QSVEESGGRLVTPGTPLTLTCTVSGFSLSSAVMNWVRQAPGKGLEWIGSIVASGTTYYASWANGRFTISKTSSTTMDLKMTSPTTEDTATYFCARGGGEFFIWGPGTLVTVSS
VL: DPVMTQTPSSTSAAVGGTVTISCQSSESVYSNYLSWYQQKPGQPPNFLIYQASNLASGVPSRFKGSGSGTQFTLTITDLECDDAATYYCAGGYSENIVGFGGGTEVVVKR
notes: as for B1

EC50 (read off the curve) [5]: ~3 nM | Kd [6]: 0.026 nM | koff [6]: 1e-05 s⁻¹
B6: Ab12.H (antibody, V domains shown)
VH: EVQLVESGGGLVQPGGSLRLSCAASGFSLSSYAMGWVRQAPGKGLEWIGDISTYGTTDYASWVYGRFTISRDNSKNTVYLQMNSLRAEDTAVYFCARDYWLSLWGQGTLVTVSS
VL: AAQLTQSPSTLSASVGDRVTITCQSSQSVYDNNALAWYQQKPGKAPKLLIYAASTLASGVPSRFSGSGSGTEFTLTISSLQPDDFATYYCLGGYYDPADNAFGGGTKVEIKR

IC50, 0.1 nM PACAP38-induced PAC1-R mediated cAMP increase [7]: 0.163 nM | IC50, 0.1 nM PACAP27-induced PAC1-R mediated cAMP increase [8]: 0.084 nM | IC50, 5 nM PACAP38-induced human VPAC1-R mediated cAMP increase [9]: 1.34 nM | IC50, 1 nM PACAP38-induced human VPAC2-R mediated cAMP increase [10]: 0.988 nM
B7: Ab10.H (antibody, V domains shown)
VH: EVQLVESGGGLVQPGGSLRLSCAASGIDLNSYYMTWVRQAPGKGLEWIGFIDAGGDAYYASWAKGRFTISRDNSKNTVYLQMNSLRAEDTAVYFCARDLDLWGQGTLVTVSS
VL: DAQLTQSPSTLSASVGDRVTITCQSSESVYGNYLAWFQQKPGKAPKFLIYEASKLESGVPSRFSGSGSGTEFTLTISSLQPDDFATYYCAGGDISEGVAFGGGTKVEIKR

EC50 (read off the curve) [11]: ~3 nM
B8: Ab3.H (antibody, V domains shown)
VH: EVQLVESGGGLVQPGGSLRLSCAASGFSFSSSDYMCWVRQAPGKGLEWIGCIDAGSSGDTYFASSAKGRFTISRDNSKNTVYLQMNSLRAEDTAVYFCARHLYGSITFAFGLWGQGTLVTVSS
VL: AAQMTQSPSTLSASVGDRVTITCQASQSIGSDLAWYQQKPGKAPKLLIYDASTLASGVPSRFSGSGSGTEFTLTISSLQPDDFATYYCQGTYYSSGWYTAFGGGTKVEIKR
